{"source": "the nanobody polyreactivity screen of Harvey et al. (2022)"}
{"assay": "yeast display, Sf9 membrane polyspecificity reagent, FACS + sequencing; frameworks hold sequencing errors", "outline": "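Galactose induction of a Saccharomyces cerevisiae BJ5465 synthetic nanobody display library ran 36–48 hours. The cells were then stained for 1 hour at 4 °C with 10% biotinylated, detergent-solubilized Sf9 membrane reagent, pulled down on streptavidin microbeads and FACS-sorted into low and high (top ~1%) gates on expression and reagent-binding fluorescence. Labels for polyreactivity follow the gate of origin.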"}
{"sequence": "QVQIVESCGGLVQAGGSLRLICAASGFIFTHYAMGWYRQAPGKERELVAAISSGGSTYYADSVKGRFTISRDNAKYTVYLQMNSLKPEDTAVYYCAAVWPWRYYATGENYWGQGTQVTVSS", "polyreactivity (PSR sort gate)": "high polyreactivity"}
{"sequence": "QVQIVESGGCLVQAGGSLRLSCAASGRIIVRNAMGWYRQARGTERELVADITNGGSTNYADSVKGRFTISRDNAKNTVFLEMNSLKPEDTAVDFCAADTLGVYDGDYWGQGTQVTVSS", "polyreactivity (PSR sort gate)": "low polyreactivity"}
{"sequence": "QVQIVESGGGLFQAGGSLRISCAASGFTFPNYAMGWYRQAPGKERELVAAITSGGGRSNYADCVKGRFTISRDNAKKTFYLEMNSLKPEDSAVYYCAKTRVRGSEFGYWGQGTQVTVSS", "polyreactivity (PSR sort gate)": "low polyreactivity"}
{"sequence": "QVQIVESGGGLFQAGGSLRLSCAASGGIFREYAMGWSRQAPGKERELVAVISDSGAGTYYADSVKGRFTISRDNAKNTVSLQMNSLKPEDTEVYYCAQGTARLDFPDMDPWGQGTQVTVSS", "polyreactivity (PSR sort gate)": "low polyreactivity"}
{"sequence": "QVQIVESGGGLLQAGGSLRLSCAASGRIFPANAMGWYREAPGKERELGAAIDYDGGSTYYADSVKGRFTISRDNAKNTVYLQRNSLKPVDNGVFYCDKSLTFYSWRDYGYWGQGTQVTVSS", "polyreactivity (PSR sort gate)": "high polyreactivity"}
{"sequence": "QVQIVESGGGLVEAGGSLRLTCAASGSIFGGNAMGWYRQAPGKERELVAAITSTVSTNYADSVKGRFTISRDNAKNTVYLQMNSLKPEDNAVYYCATDTSNVEGDYWGQGTQVTVSS", "polyreactivity (PSR sort gate)": "low polyreactivity"}
{"sequence": "QVQIVESGGGLVQAAGSLRLSCAASGSTLAPYAMGWYRQAPGKERELVASINWGGTTTYYADSVKGRFTNSRDNAKNKVYLQMNSLKPEDTAVYYCAALGLSWGRSGYYYEYYYWGQGTQVTVSS", "polyreactivity (PSR sort gate)": "high polyreactivity"}
{"sequence": "QVQIVESGGGLVQAGCSLRLSCAASGNIFRGYTMGWYRQAPGKEWELVATITWNGVSTFYADSVKGRFTISRDNAKNTGYLQMNSLKPEDTAVYYCAAYYPSHDYSGFGSDTYEYWGQGTQVTVSS", "polyreactivity (PSR sort gate)": "low polyreactivity"}
{"sequence": "QVQIVESGGGLVQAGGILRLSCAASGSTFSFNAMGWYRQAPGKERELVAAITGGDGTIYADSVKGRFTISRDNAKNTVYLQMNSLKPEVTAVYYCAADQWGSTEDYWFTYGYWGQGTQVTVSS", "polyreactivity (PSR sort gate)": "low polyreactivity"}
{"sequence": "QVQIVESGGGLVQAGGSLRISCAASGSIFVQYAMGLYRQAPGKERELVAAITTGGGTNYADSVKGRFKISRDNAKNTVYLQMNSLKPEDTAVYSCAADSRWLVRLYDYWGHGTQVTVSS", "polyreactivity (PSR sort gate)": "low polyreactivity"}
{"sequence": "QVQIVESGGGLVQAGGSLRISCAASGSTFPRNVMGWYRQAPGKERELVAAITSSGGSTYYADSVKGRFTISRDNAQHTVYLQMNSLKPADTAVYYCNAVSYYLGDDYWGQGTQVTVSS", "polyreactivity (PSR sort gate)": "high polyreactivity"}
{"sequence": "QVQIVESGGGLVQAGGSLRLSCAASGFIFYFYAMGWYRQAPGKERELVATITRRDDSTYYADSVKGRFTISRDNAKNTVYLQMNSLKPEDTAVYYCNADFWLLSEYDYWGQGTQVTVSS", "polyreactivity (PSR sort gate)": "low polyreactivity"}
{"sequence": "QVQIVESGGGLVQAGGSLRLSCAASGFTFLWYAMGWYRQAPGKERELVAAINSGGRTNYADSVKGRFTISRDNAKNTVYLQMNSLKPEDTAVYYCAKRRPLYAHPDDYWGQGTQVTVSS", "polyreactivity (PSR sort gate)": "low polyreactivity"}
{"sequence": "QVQIVESGGGLVQAGGSLRLSCAASGFTFRVYAMGWYRPAPGKERELVAAISARGGSTYYADSVKVRFTISRDNAKNTVDLQMNSLKPEDTAVYYCAAEPSGKRSKFYYWGQGTQETVSS", "polyreactivity (PSR sort gate)": "high polyreactivity"}
{"sequence": "QVQIVESGGGLVQAGGSLRLSCAASGGILYYYVMGWYRQAPGKERELVADISRGGSTNYADSVKGRFTISRDNAKNTVYFQMNSLKPEDTAVYYCADQDGLKQYTFDYWGQGTQVSVSS", "polyreactivity (PSR sort gate)": "low polyreactivity"}
{"sequence": "QVQIVESGGGLVQAGGSLRLSCAASGGIYTRYVMGWYRQAPGTERELVAAISSGGSTYYADSVKGRFTISRDNAKNTDYFQMNSLKPEDTAVYYCAAGYYIYLIRKFIYDYWGQGSQVTVSS", "polyreactivity (PSR sort gate)": "high polyreactivity"}
{"sequence": "QVQIVESGGGLVQAGGSLRLSCAASGGTFWANAMGWYRQAPGKERELVAAITSGGSTYADSVKGRFTISRDNAKNTVYLQMNSLKPDDTAVYYCNARRYRYRPYLSGYNYWGQGTQVTVSS", "polyreactivity (PSR sort gate)": "high polyreactivity"}
{"sequence": "QVQIVESGGGLVQAGGSLRLSCAASGGTFYVNDMGWYRQAPGKERELVATITYSGTSTYYADSVKGRFTISRDNAKNTVYLHMNSLKPEDTAVYYCATDVLLYFEPVNLEYWGQGTQVTVSS", "polyreactivity (PSR sort gate)": "low polyreactivity"}
{"sequence": "QVQIVESGGGLVQAGGSLRLSCAASGIIFDYYAMGWYIQAPGKERELVATITSGGSTNYADSVKGRFTISRDNAKNTVYLQMNSLKPEDSAVYYCAARTYWFPDIYPGLGMDYWGHGTQVTVSS", "polyreactivity (PSR sort gate)": "low polyreactivity"}
{"sequence": "QVQIVESGGGLVQAGGSLRLSCAASGIIFPVYVMGWYRQAPGKERELVAAISKRGGSTYYADSVKGRFTISRDNAKNTVYLQMNSLKPEDTAVYYCAADRSRHSFYWEYDYWGQGTQVTVSS", "polyreactivity (PSR sort gate)": "high polyreactivity"}
{"sequence": "QVQIVESGGGLVQAGGSLRLSCAASGITFDTYVMGWYRQAPGKERELVATISESVGNTYYADSVKGRFTISRDNEKNTVYLQMNILKPEDTAVDYCYTSRYYTIYTYYYWGQGTQVTVSS", "polyreactivity (PSR sort gate)": "low polyreactivity"}
{"sequence": "QVQIVESGGGLVQAGGSLRLSCAASGITFVPNAIGLYRQAPGKERELFDAITNGDSTNYADSVKGRFTISRDNAKNTVYLQMNSLKPEDTAVYYCAADSCAQRPNQGRVSLHYYWGQVTQVTVSS", "polyreactivity (PSR sort gate)": "low polyreactivity"}
{"sequence": "QVQIVESGGGLVQAGGSLRLSCAASGLTFIRYAMGWYRQAPGKERELVAAISTSGGRTYYADSVKGRFTISRDNAKNTVYLQMNSLKPEDTAVYYCAKYQSTGYTQSSYDYRGQGTQVTVSS", "polyreactivity (PSR sort gate)": "high polyreactivity"}
{"sequence": "QVQIVESGGGLVQAGGSLRLSCAASGRIFDLNAMGWYRQAPGKEREFVASITWSVGSTYYADSVKGRFTISRDNAKNTVYLQMNSLKPEVTAVYYCAARSLSWTPYYYWGQGTQVTVSS", "polyreactivity (PSR sort gate)": "high polyreactivity"}
{"sequence": "QVQIVESGGGLVQAGGSLRLSCAASGRIFVGYAMGWYRQAPGKERELFAAISRDGDNTFYADSVKGRFTISRDNAKNTVYLQMNSLKPEDTAVYYCAVDFCVWYGSAYAYDYYWGQGTQVTVSS", "polyreactivity (PSR sort gate)": "low polyreactivity"}
{"sequence": "QVQIVESGGGLVQAGGSLRLSCAASGRISVFNAMGWYRQAPGKERELVAAITSGGSTNYADSVKGRFTISRDNAKNTVYLQMNSLKPEDTAVYYCNADVYHSHEPHYDYWGQGTQVTVSS", "polyreactivity (PSR sort gate)": "low polyreactivity"}
{"sequence": "QVQIVESGGGLVQAGGSLRLSCAASGRTFDHNAMGWYRQAPGKERELVATISGSGGSTNYADSVKGRFTISRDNAKNTVDLQMNSLKPEDTAVYYCATPRVWYYNQYSELDYWGQGTQVTVSS", "polyreactivity (PSR sort gate)": "high polyreactivity"}
{"sequence": "QVQIVESGGGLVQAGGSLRLSCAASGRTFRVNAMGWYRQAPGKERELVAAISSSGGSTYYADSVKGRFTISRDNAKNTVYLQMNSLKPEDTAVYYCAAVVGGYRYDYLGQGTQVTVSS", "polyreactivity (PSR sort gate)": "high polyreactivity"}
{"sequence": "QVQIVESGGGLVQAGGSLRLSCAASGRTFVTYAMGWYRQAPGKERELVAAISRRGGSTYYADSVKGRFTISRDNAKNTVYLQMNSLKPEDTAVYYCAADPTYRTKFGYWGQGTQVTVSS", "polyreactivity (PSR sort gate)": "high polyreactivity"}
{"sequence": "QVQIVESGGGLVQAGGSLRLSCAASGSIFIFYAMGWYRQAPGKERELVADITSDGASTYYADSVKGRFTISRDNAKNTVYLQMNSLKPEDTAVYYCAADYIDSSAYDYWGQGTQVTVSS", "polyreactivity (PSR sort gate)": "low polyreactivity"}
{"sequence": "QVQIVESGGGLVQAGGSLRLSCAASGSIFVQNAMGWYRQAPGKERELVAVINSGDSTNYADSVKGRFTISRDNAKNTVYLQMNSLKPEDTAVYYCAVDDVSYYYLRAYNYELSWYGSGLDYWGQGTQVTVSS", "polyreactivity (PSR sort gate)": "low polyreactivity"}
{"sequence": "QVQIVESGGGLVQAGGSLRLSCAASGSILLYYPIGWYRQAPAKEREWVARITGSGSRTYYADSVKGRFTISRDNAKNTVFVQMHSVKPEDNAVYYCAADFSGHGWESVVGYGYWGQGTQVTVSS", "polyreactivity (PSR sort gate)": "low polyreactivity"}
{"sequence": "QVQIVESGGGLVQAGGSLRLSCAASGSTFFRYAMGWYRQAPGKERELVAAISYSGDSTYYADSVKGRFTISRDNAKNTVYLQMNSLKPEDTAVFYCNAVYFRYRYNYWGQGTQVTVSS", "polyreactivity (PSR sort gate)": "high polyreactivity"}
{"sequence": "QVQIVESGGGLVQAGGSLRLSCAASGSTFPTNAMGWYRQAPGKERELVAAITSTGSTYADSVKGRFTISRDNAKNTVYLQMNSLKPEDTAVYYCAADTQWTTPYDYWGQGTQVTVSS", "polyreactivity (PSR sort gate)": "low polyreactivity"}
{"sequence": "QVQIVESGGGLVQAGGSLRLSCAASGSTFQYYAMGWYRQAPGKERELVAGITWRDGNTYYADSVKGRFTISRDNAKNSVYLQMNSLKPEDTAVYYCAARRYFVIYFPYDYWGQGTQVTVSS", "polyreactivity (PSR sort gate)": "low polyreactivity"}
{"sequence": "QVQIVESGGGLVQAGGSLRLSCAASGSTFTIYAMGRYRQAPGKERELVAAISSGGSTYYADSVKGRFTISRDNAKNTVYLQMNSLKPEDTAVYYCAARVYLSGYGYNYWGQGTQVTVSS", "polyreactivity (PSR sort gate)": "high polyreactivity"}
{"sequence": "QVQIVESGGGLVQAGGSLRLSCAASGSTSYRYAMGWYRQATGQERALVAAIPWISDSTYYADSVKGRFTISRDNAKNTVYLQMNSLKPEDTAVYYCNTDPLVTSVTFNYWGQGTQVTVSS", "polyreactivity (PSR sort gate)": "low polyreactivity"}
{"sequence": "QVQIVESGGGLVQAGGSLRLSCAASGYTFVENAMGWYRQAPGKERELVAAISNGTITYYADSVKGRFTISRDNAKNTVYLQMNSLKPEDTAVYYCADYEYWGQGTQVTVSS", "polyreactivity (PSR sort gate)": "low polyreactivity"}
{"sequence": "QVQIVESGGGLVQAGGSLRLSCADSGSTRIYAMGWYRQAPGKERELVAAISWSGGRTYYADSVKGRFTISRDNAKNTVYLQMNSLKPEDTAVYYCAAKGSGRDYWGQGTQVTVSS", "polyreactivity (PSR sort gate)": "high polyreactivity"}
{"sequence": "QVQIVESGGGLVQAGGSLRLSCAPSGRTFVGFAKGWYRQAPGKERELVAAISRTGGSTYYADSVKGRFTISRDNAKNTVYLQMNSLKPEDTAVYYCNAVTLSSTYGGHDYWGQGTQVTVSS", "polyreactivity (PSR sort gate)": "high polyreactivity"}
{"sequence": "QVQIVESGGGLVQAGGSLRLSCASSGSTFVSYDMGWYRQAPGKERELVADISWSGVSTYADSVKGRFTISRDNAMNTVYLQMNSLKPEDTAVYYCAKDSDLYQRGGYYWGQGTQVTVSS", "polyreactivity (PSR sort gate)": "low polyreactivity"}
{"sequence": "QVQIVESGGGLVQAGGSLRLSCDASGFTFFKYAMGWYRHAPGKERELVATISIDCITNYADSVKGRFTISRDNAKNTVYLQMNSLKPEDTAVYYCNARSLYQQLGYWGQGTQVTVSS", "polyreactivity (PSR sort gate)": "low polyreactivity"}
{"sequence": "QVQIVESGGGLVQAGGSLRLSCPASGRIFYNNAMGWYRPAPGKERELVAAINWSGGSTYYADSVKGRFTISRDNAKNTVYLQMNSLKPEDTAVYYCNADPHGYYGYGYDYWGQGTQVTVSS", "polyreactivity (PSR sort gate)": "low polyreactivity"}
